Laboratory results as given in US20180371086A1 (Gilead, published 2018).

Legend:
[1] = target: HIV-1 Env of virus MGRM-G-011 (HIV-1); assay: cell-based or functional assay
[2] = target: HIV-1 Env of virus MGRM-Chronic-B-020 (HIV-1); assay: cell-based or functional assay
[3] = target: HIV-1 Env of virus MGRM-Chronic-B-010 (HIV-1); assay: cell-based or functional assay
[4] = target: HIV-1 Env of virus MGRM-C-006 (HIV-1); assay: cell-based or functional assay
[5] = target: HIV-1 Env of virus MGRM-C-027 (HIV-1); assay: cell-based or functional assay
[6] = target: HIV-1 Env of virus MGRM-C-023 (HIV-1); assay: cell-based or functional assay
[7] = target: HIV-1 Env of virus MGRM-A-009 (HIV-1); assay: cell-based or functional assay
[8] = target: HIV-1 Env of virus MGRM-A-006 (HIV-1); assay: cell-based or functional assay
[9] = target: HIV-1 Env (gp120) of virus 593 (HIV-1); assay: cell-based or functional assay
[10] = target: HIV-1 Env (gp120) of virus 7051 (HIV-1); assay: cell-based or functional assay
[11] = target: HIV-1 Env (gp120) of virus 7015 (HIV-1); assay: cell-based or functional assay
[12] = target: HIV-1 Env (gp120) of virus 8339 (HIV-1); assay: cell-based or functional assay
[13] = target: HIV-1 Env (gp120) of virus REJO (HIV-1); assay: cell-based or functional assay
[14] = target: HIV-1 Env (gp120) of virus 8176 (HIV-1); assay: cell-based or functional assay
[15] = target: HIV-1 Env (gp120) of virus 7467 (HIV-1); assay: cell-based or functional assay
[16] = target: HIV-1 Env (gp120) of virus 8320 (HIV-1); assay: cell-based or functional assay
[17] = target: HIV-1 Env (gp120) of virus CH106 (HIV-1); assay: cell-based or functional assay
[18] = target: HIV-1 Env (gp120) of virus 7406 (HIV-1); assay: cell-based or functional assay
[19] = target: HIV-1 Env (gp120) of virus 8089 (HIV-1); assay: cell-based or functional assay
[20] = target: HIV-1 Env (gp120) of virus 727 (HIV-1); assay: cell-based or functional assay
[21] = target: HIV-1 Env (gp120) of virus 657 (HIV-1); assay: cell-based or functional assay
[22] = target: HIV-1 Env (gp120) of virus 7552 (HIV-1); assay: cell-based or functional assay
[23] = target: HIV-1 Env (gp120) of virus 7576 (HIV-1); assay: cell-based or functional assay
[24] = target: HIV-1 Env (gp120) of virus CH058 (HIV-1); assay: cell-based or functional assay
[25] = target: HIV-1 Env (gp120) of virus WITO (HIV-1 (clone WITO)); assay: cell-based or functional assay
[26] = target: HIV-1 Env (gp120) of virus 712 (HIV-1); assay: cell-based or functional assay
[27] = target: HIV-1 Env (gp120) of virus 1489 (HIV-1); assay: cell-based or functional assay
[28] = target: HIV-1 Env (gp120) of virus 8106 (HIV-1); assay: cell-based or functional assay
[29] = target: HIV-1 Env (gp120) of virus 8398 (HIV-1); assay: cell-based or functional assay
[30] = target: HIV-1 Env (gp120) of virus BaL (HIV-1); assay: cell-based or functional assay
[31] = target: gp120 (HT593) expressed on human embryonic kidney (HEK) cells (HIV-1); assay: cell-based or functional assay
Human FcRn [32] = target: T1, Human FcRn (human, UniProt P55899 24-297; P61769 21-119); assay: ELISA, FcRn coated on plate, pH 6.0
T1 construct: also called neonatal Fc receptor
T1 sequence (P55899 24-297 limits assumed, chain 1 of 2): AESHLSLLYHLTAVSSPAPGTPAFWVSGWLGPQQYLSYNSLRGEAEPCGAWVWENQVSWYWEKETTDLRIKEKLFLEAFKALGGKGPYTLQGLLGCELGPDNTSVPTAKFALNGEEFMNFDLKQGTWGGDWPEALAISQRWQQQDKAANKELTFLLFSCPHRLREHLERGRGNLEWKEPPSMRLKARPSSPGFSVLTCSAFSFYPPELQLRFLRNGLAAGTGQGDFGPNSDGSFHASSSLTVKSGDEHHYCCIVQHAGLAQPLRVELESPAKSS
T1 sequence (P61769 21-119 limits assumed, chain 2 of 2): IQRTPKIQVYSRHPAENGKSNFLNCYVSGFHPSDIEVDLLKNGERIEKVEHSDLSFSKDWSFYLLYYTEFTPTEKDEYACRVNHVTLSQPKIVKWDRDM
Experimental: (§1) The binding of antibodies to FcRn of various antibody variants at different pHs was determined. A 96-well Maxisorp plate was coated with 100 ul of 5 μg/ml FcRn. The plate was incubated overnight at 4° C., and then blocked with 4% skim milk for 2 hr at room temperature after washing 3 times with 0.05% Tween 20 washing buffer. […] The plate was then washed 3 times and 100 μL of Fab-anti-human Fab-HRP or Goat anti-human IgG-HRP secondary antibody diluted in 4% skimmed milk was added. Plates were then incubated 50 min at room temperature, washed three times, and 100 μL fresh TMB substrate was added. Plates were developed for 3 minutes on bench with gentle shaking. Plate was quenched with 100 μL 1M HCl, shaken briefly, read at A450 on a spectramax m5 plate reader.

Human FcRn [33] = target: T1, Human FcRn; assay: ELISA, FcRn coated on plate, pH 7.0
Experimental: as §1

Human FcRn [34] = target: T1, Human FcRn; assay: ELISA, FcRn coated on plate; ratio of EC50 at pH 7.0 to pH 6.0
Experimental: as §1

Human FcRn [35] = target: T1, Human FcRn; assay: ELISA, FcRn coated on plate; pH 7.0/6.0 ratio against that of PGT121
Experimental: as §1

B1: PGT121.60 hIgG1/hLambda (antibody)
heavy: QMQLQESGPGLVKPSETLSLTCSVSGASISDSYWSWIRRSPGKGLEWIGYVHKSGDTNYNPSLKSRVHLSLDTSKNQVSLSLTGVTAADSGKYYCARTLHGRRIYGIVAFNEWFTYFYMDVWGTGTQVTVSSASTKGPSVFPLAPSSKSTSGGTAALGCLVKDYFPEPVTVSWNSGALTSGVHTFPAVLQSSGLYSLSSVVTVPSSSLGTQTYICNVNHKPSNTKVDKKVEPKSCDKTHTCPPCPAPELLAGPDVFLFPPKPKDTLMISRTPEVTCVVVDVSHEDPEVKFNWYVDGVEVHNAKTKPREEQYNSTYRVVSVLTVLHQDWLNGKEYKCKVSNKALPLPEEKTISKAKGQPREPQVYTLPPSREEMTKNQVSLTCLVKGFYPSDIAVEWESNGQPENNYKTTPPVLDSDGSFFLYSKLTVDKSRWQQGNVFSCSVLHEALHSHYTQKSLSLSPGK
light: not shown
- PGT121.60 IC50 [1]: 1.91 µg/mL
- PGT121.60 IC50 [2]: 0.0018 µg/mL
- PGT121.60 IC50 [3]: 0.0074 µg/mL
- PGT121.60 IC50 [4]: 0.003 µg/mL
- PGT121.60 IC50 [5]: 0.0038 µg/mL
- PGT121.60 IC50 [6]: 0.0044 µg/mL
- PGT121.60 IC50 [7]: 0.0074 µg/mL
- PGT121.60 IC50 [8]: 4.05 µg/mL
- EC50 (µg/mL), killing of HIV-infected cells (Mean) [9]: 0.912 µg/mL
- Emax, killing of HIV-infected cells (Mean) [9]: 56%
- EC50 (µg/mL), killing of HIV-infected cells (Mean) [10]: 0.394 µg/mL
- Emax, killing of HIV-infected cells (Mean) [10]: 49%
- EC50 (µg/mL), killing of HIV-infected cells (Mean) [11]: 0.516 µg/mL
- Emax, killing of HIV-infected cells (Mean) [11]: 55%
- EC50 (µg/mL), killing of HIV-infected cells (Mean) [12]: 3.81 µg/mL
- Emax, killing of HIV-infected cells (Mean) [12]: 13%
- EC50 (µg/mL), killing of HIV-infected cells (Mean) [13]: 2.6 µg/mL
- Emax, killing of HIV-infected cells (Mean) [13]: 0%
- EC50 (µg/mL), killing of HIV-infected cells (Mean) [14]: 1.01 µg/mL
- Emax, killing of HIV-infected cells (Mean) [14]: 56%
- EC50 (µg/mL), killing of HIV-infected cells (Mean) [15]: 0.139 µg/mL
- Emax, killing of HIV-infected cells (Mean) [15]: 54%
- EC50 (µg/mL), killing of HIV-infected cells (Mean) [16]: 2.12 µg/mL
- Emax, killing of HIV-infected cells (Mean) [16]: 0%
- EC50 (µg/mL), killing of HIV-infected cells (Mean) [17]: 6.17 µg/mL
- Emax, killing of HIV-infected cells (Mean) [17]: 46%
- EC50 (µg/mL), killing of HIV-infected cells (Mean) [18]: 0.09 µg/mL
- Emax, killing of HIV-infected cells (Mean) [18]: 63%
- EC50 (µg/mL), killing of HIV-infected cells (Mean) [19]: 0.226 µg/mL
- Emax, killing of HIV-infected cells (Mean) [19]: 64%
- EC50 (µg/mL), killing of HIV-infected cells (Mean) [20]: 0.034 µg/mL
- Emax, killing of HIV-infected cells (Mean) [20]: 66%
- EC50 (µg/mL), killing of HIV-infected cells (Mean) [21]: 1.44 µg/mL
- Emax, killing of HIV-infected cells (Mean) [21]: 62%
- EC50 (µg/mL), killing of HIV-infected cells (Mean) [22]: 0.011 µg/mL
- Emax, killing of HIV-infected cells (Mean) [22]: 66%
- EC50 (µg/mL), killing of HIV-infected cells (Mean) [23]: 0.016 µg/mL
- Emax, killing of HIV-infected cells (Mean) [23]: 71%
- EC50 (µg/mL), killing of HIV-infected cells (Mean) [24]: 0.16 µg/mL
- Emax, killing of HIV-infected cells (Mean) [24]: 71%
- EC50 (µg/mL), killing of HIV-infected cells (Mean) [25]: 2.52 µg/mL
- Emax, killing of HIV-infected cells (Mean) [25]: 71%
- EC50 (µg/mL), killing of HIV-infected cells (Mean) [26]: 0.084 µg/mL
- Emax, killing of HIV-infected cells (Mean) [26]: 71%
- EC50 (µg/mL), killing of HIV-infected cells (Mean) [27]: 0.276 µg/mL
- Emax, killing of HIV-infected cells (Mean) [27]: 70%
- EC50 (µg/mL), killing of HIV-infected cells (Mean) [28]: 0.11 µg/mL
- Emax, killing of HIV-infected cells (Mean) [28]: 75%
- EC50 (µg/mL), killing of HIV-infected cells (Mean) [29]: 0.067 µg/mL
- Emax, killing of HIV-infected cells (Mean) [29]: 76%
- EC50 (µg/mL), killing of HIV-infected cells (Mean) [30]: 0.048 µg/mL
- Emax, killing of HIV-infected cells (Mean) [30]: 73%
- % ADCC Activity (ADCC reporter cell based assay; sample stressed at 25° C. for 4 weeks, relative to its untreated control) [31]: 65%
- EC50 (Human FcRn [32]): 0.22 nM
- EC50 (Human FcRn [33]): 78 nM
- Ratio pH 7.0/6.0 (Human FcRn [34]): 355
- Fold vs PGT121 (Human FcRn [35]): 11 fold
